Results on 94 variants are retold here after the supplement of paper PMC10567573.

Sequences and labels used below:
B1: CD207 (parent)
chain: MTVEKEAPDAHFTVDKQNISLWPR
B2: ZNF649 (parent)
chain: LTEHKRIHTGKKPHVCSLCGKAFY
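Further: lentivirally expressed fusions sorted by FACS into six bins by GFP to DsRed ratio, PSI derived from sequencing read proportions per bin multiplied by bin number.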

In the first data set the parent is B1. The data set is described as follows: protein stability index of a GFP-peptide fusion (GPS, HEK-293T) (PSI 1-6); higher = more stable. Conditions: c terminus: a fixed tail appended.
For MTVQKEAPDAHFTVDKQNISLWPR [E4Q], the protein stability index was 3.92.

In the case of MTVMKEAPDAHFTVDKQNISLWPR [E4M], the protein stability index is 3.2.

In the case of MTVYKEAPDAHFTVDKQNISLWPR [E4Y], the protein stability index worked out at 2.43.

In the case of MTVRKEAPDAHFTVDKQNISLWPR [E4R], the protein stability index is 3.02.

Regarding MTVDKEAPDAHFTVDKQNISLWPR [E4D], the protein stability index came to 3.67.

For the variant MTVWKEAPDAHFTVDKQNISLWPR [E4W], the protein stability index turned out to be 1.99.

Turning to MTVLKEAPDAHFTVDKQNISLWPR [E4L], the protein stability index was 2.79.

For MTVPKEAPDAHFTVDKQNISLWPR [E4P], the protein stability index amounted to 3.18.

In the case of MTVIKEAPDAHFTVDKQNISLWPR [E4I], the protein stability index was 2.56.

For MTVAKEAPDAHFTVDKQNISLWPR [E4A], the protein stability index was 3.17.

Consider MTVHKEAPDAHFTVDKQNISLWPR [E4H], for which the protein stability index turned out to be 3.

Consider MTVGKEAPDAHFTVDKQNISLWPR [E4G], for which the protein stability index came to 3.37.

On to MTVSKEAPDAHFTVDKQNISLWPR [E4S], for which the protein stability index was 3.68.

With MTVTKEAPDAHFTVDKQNISLWPR [E4T], the protein stability index worked out at 2.77.

In the case of MTVNKEAPDAHFTVDKQNISLWPR [E4N], the protein stability index worked out at 2.86.

As to MTVFKEAPDAHFTVDKQNISLWPR [E4F], the protein stability index was found to be 2.28.

Regarding YTVEKEAPDAHFTVDKQNISLWPR [M1Y], the protein stability index amounted to 2.37.

RTVEKEAPDAHFTVDKQNISLWPR [M1R]: the protein stability index came to 3.98.

In the case of DTVEKEAPDAHFTVDKQNISLWPR [M1D], the protein stability index was 4.23.

For KTVEKEAPDAHFTVDKQNISLWPR [M1K], the protein stability index stood at 2.81.

For the variant HTVEKEAPDAHFTVDKQNISLWPR [M1H], the protein stability index was 3.27.

Turning to LTVEKEAPDAHFTVDKQNISLWPR [M1L], the protein stability index was 3.07.

In the case of ATVEKEAPDAHFTVDKQNISLWPR [M1A], the protein stability index worked out at 3.62.

Consider GTVEKEAPDAHFTVDKQNISLWPR [M1G], for which the protein stability index was 4.16.

For the variant WTVEKEAPDAHFTVDKQNISLWPR [M1W], the protein stability index worked out at 3.13.

For TTVEKEAPDAHFTVDKQNISLWPR [M1T], the protein stability index worked out at 3.45.

QTVEKEAPDAHFTVDKQNISLWPR [M1Q]: the protein stability index was 3.8.

With CTVEKEAPDAHFTVDKQNISLWPR [M1C], the protein stability index was 3.38.

For NTVEKEAPDAHFTVDKQNISLWPR [M1N], the protein stability index amounted to 3.68.

With PTVEKEAPDAHFTVDKQNISLWPR [M1P], the protein stability index amounted to 4.17.

For the variant VTVEKEAPDAHFTVDKQNISLWPR [M1V], the protein stability index stood at 3.76.

For FTVEKEAPDAHFTVDKQNISLWPR [M1F], the protein stability index came to 2.11.

For the variant STVEKEAPDAHFTVDKQNISLWPR [M1S], the protein stability index was determined as 3.57.

Turning to ITVEKEAPDAHFTVDKQNISLWPR [M1I], the protein stability index is 2.8.

Consider ETVEKEAPDAHFTVDKQNISLWPR [M1E], for which the protein stability index was 3.36.

In the next data set the parent is B2. Described as above. The following applies: c terminus: a fixed tail appended.
Consider LTEHKRIHTGKKPHVCYLCGKAFY [S17Y], for which the protein stability index stood at 2.11.

Take LTEHKRIHTGKKPHVCMLCGKAFY [S17M]: the protein stability index was 2.83.

For LTVHKRIHTGKKPHVCSLCGKAFY [E3V], the protein stability index is 2.23.

LTNHKRIHTGKKPHVCSLCGKAFY [E3N]: the protein stability index was 2.22.

For the variant LTEHKRIHPGKKPHVCSLCGKAFY [T9P], the protein stability index came out at 2.85.

As for LTEHKRIHGGKKPHVCSLCGKAFY [T9G], the protein stability index is 2.8.

As for LTEHKRIHVGKKPHVCSLCGKAFY [T9V], the protein stability index was found to be 3.62.

Take LTEHKRIHLGKKPHVCSLCGKAFY [T9L]: the protein stability index came to 2.51.

Turning to LTEHKRIHTGKKPFVCSLCGKAFY [H14F], the protein stability index amounted to 2.4.

For LTEHKRIHTGKKPHVCSLCWKAFY [G20W], the protein stability index turned out to be 2.59.

With LTEHKRIHTGKKPHVCSLCHKAFY [G20H], the protein stability index worked out at 1.6.

LTEHKRIHTGKKPHVCSLCLKAFY [G20L]: the protein stability index turned out to be 2.06.

For the variant LTEHKRIHTGKKPHTCSLCGKAFY [V15T], the protein stability index turned out to be 2.46.

As for LTEHKRIHTGKKPHDCSLCGKAFY [V15D], the protein stability index was 2.93.

Consider LTEHKRIHTGKKPHKCSLCGKAFY [V15K], for which the protein stability index is 2.9.

With LTEHKRIHTGKKPHWCSLCGKAFY [V15W], the protein stability index came to 1.83.

As to LTEHKRIHTGKKPHRCSLCGKAFY [V15R], the protein stability index turned out to be 2.32.

Turning to LTEHKCIHTGKKPHVCSLCGKAFY [R6C], the protein stability index stood at 4.05.

On to LTEHKGIHTGKKPHVCSLCGKAFY [R6G], for which the protein stability index was 1.94.

Turning to LTEHKRIHTGKKPHVHSLCGKAFY [C16H], the protein stability index was found to be 2.71.

With LTEHKRIHTGKKPHVLSLCGKAFY [C16L], the protein stability index is 2.17.

With LTEHKRIHTGNKPHVCSLCGKAFY [K11N], the protein stability index is 2.35.

Consider LTEHKRIHTGCKPHVCSLCGKAFY [K11C], for which the protein stability index was 2.43.

On to LTEHKRDHTGKKPHVCSLCGKAFY [I7D], for which the protein stability index turned out to be 2.31.

Consider LTEHKRLHTGKKPHVCSLCGKAFY [I7L], for which the protein stability index worked out at 3.11.

Turning to LTEHKRIHTIKKPHVCSLCGKAFY [G10I], the protein stability index came to 2.49.

For LTELKRIHTGKKPHVCSLCGKAFY [H4L], the protein stability index worked out at 2.11.

Regarding LTEHKRIHTGKKPHVCSLCGLAFY [K21L], the protein stability index is 1.77.

Regarding LTEHKRIHTGKKPHVCSLCGSAFY [K21S], the protein stability index came to 2.44.

LTEHKRIHTGKKPHVCSCCGKAFY [L18C]: the protein stability index was 3.2.

As for LTEHKRIHTGKKPHVCSRCGKAFY [L18R], the protein stability index was found to be 3.

LTEHKRIHTGKKPHVCSDCGKAFY [L18D]: the protein stability index amounted to 2.84.

For LTEHKRIHTGKKPHVCSVCGKAFY [L18V], the protein stability index was determined as 2.37.

For the variant LTEHKRIHTGKKPHVCSLCGKTFY [A22T], the protein stability index came out at 3.41.

As to LTEHKRIHTGKKPHVCSLCGKDFY [A22D], the protein stability index came to 2.51.

Take LTEHKRIHTGKKPHVCSLCGKSFY [A22S]: the protein stability index was 2.55.

For LTEHKRIHTGKKPHVCSLCGKAEY [F23E], the protein stability index is 3.69.

Regarding LTEHKRIHTGKKPHVCSLCGKAHY [F23H], the protein stability index was determined as 4.3.

As for LTEHKRIHTGKKPHVCSLCGKAVY [F23V], the protein stability index was found to be 2.32.

LTEHKRIHTGKKPHVCSLCGKAMY [F23M]: the protein stability index amounted to 2.56.

LTEHKRIHTGKKPHVCSLCGKADY [F23D]: the protein stability index amounted to 3.98.

On to LTEHKRIHTGKKPHVCSLCGKAAY [F23A], for which the protein stability index worked out at 2.77.

Turning to LTEHKRIHTGKKPHVCSLCGKAFN [Y24N], the protein stability index was 1.43.

With LTEHKRIHTGKKPHVCSLCGKAFP [Y24P], the protein stability index amounted to 3.45.

Consider LCEHKRIHTGKKPHVCSLCGKAFY [T2C], for which the protein stability index was found to be 3.94.

Regarding LWEHKRIHTGKKPHVCSLCGKAFY [T2W], the protein stability index stood at 2.

For the variant LNEHKRIHTGKKPHVCSLCGKAFY [T2N], the protein stability index turned out to be 2.32.

With LPEHKRIHTGKKPHVCSLCGKAFY [T2P], the protein stability index came to 2.32.

For the variant LEEHKRIHTGKKPHVCSLCGKAFY [T2E], the protein stability index amounted to 3.01.

For the variant LREHKRIHTGKKPHVCSLCGKAFY [T2R], the protein stability index was 2.78.

As to LGEHKRIHTGKKPHVCSLCGKAFY [T2G], the protein stability index worked out at 2.25.

For the variant LTEHKRIHTGKNPHVCSLCGKAFY [K12N], the protein stability index is 3.3.

For the variant LTEHKRIHTGKRPHVCSLCGKAFY [K12R], the protein stability index was 2.61.

On to LTEHKRIHTGKKPHVCSLEGKAFY [C19E], for which the protein stability index turned out to be 3.09.

LTEHKRIHTGKKPHVCSLNGKAFY [C19N]: the protein stability index was 2.89.

As to LTEHKRIHTGKKPHVCSLGGKAFY [C19G], the protein stability index was found to be 2.39.

For LTEHKRIYTGKKPHVCSLCGKAFY [H8Y], the protein stability index came to 2.89.

With LTEHWRIHTGKKPHVCSLCGKAFY [K5W], the protein stability index worked out at 3.18.

LTEHERIHTGKKPHVCSLCGKAFY [K5E]: the protein stability index turned out to be 3.03.
